Data on five molecules can be found in article PMC9482650, “Quantitative fragmentomics allow affinity mapping of interactomes” (Nature Communications, 2022).

Targets include HTRA2, O43464; TJP1_2, Q07157; GORASP2, Q9H8Y8; AHNAK1, Q09666; Inadl_4, Q8NI35; DLG2_3, Q15700; GRIP2_3, Q9C0E4; GRIP2_5, Q9C0E4.
Holding throughout (assay): holdup assay
What all share (design): key: below the threshold = too weak to quantify, mostly under pKd 3.1 to 4

In the next test the target is T1, APBA1_1, Q02410.
T1 sequence (Q02410 651-752, limits assumed, looked up): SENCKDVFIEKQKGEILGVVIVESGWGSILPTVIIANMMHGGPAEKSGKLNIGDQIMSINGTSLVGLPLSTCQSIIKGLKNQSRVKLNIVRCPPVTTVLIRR

The next test has as its target T2, PTPN13_1, Q12923.
T2 sequence (Q12923 1088-1188, limits assumed, looked up): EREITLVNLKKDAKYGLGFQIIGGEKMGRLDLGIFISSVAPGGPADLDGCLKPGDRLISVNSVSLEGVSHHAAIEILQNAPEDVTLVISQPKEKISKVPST

Another test addresses T3, TJP3_3, O95049.
T3 sequence (O95049 375-456, limits assumed, looked up): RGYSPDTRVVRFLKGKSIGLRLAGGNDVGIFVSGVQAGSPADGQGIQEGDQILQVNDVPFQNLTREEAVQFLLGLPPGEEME

The next test has as its target T4, SIPA1L2, Q9P2F8.
T4 sequence (Q9P2F8 945-1036, limits assumed, looked up): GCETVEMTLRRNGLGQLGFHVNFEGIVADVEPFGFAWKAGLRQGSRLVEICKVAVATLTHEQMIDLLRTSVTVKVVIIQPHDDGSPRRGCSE

The target of another test is T5, SNTA1, Q13424.
T5 sequence (Q13424 82-180, limits assumed, looked up): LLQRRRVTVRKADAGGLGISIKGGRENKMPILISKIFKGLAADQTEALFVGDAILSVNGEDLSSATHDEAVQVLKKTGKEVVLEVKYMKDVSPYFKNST

The target in another test is T6, TX1BP3, O14907.
T6 sequence (O14907 10-122, limits assumed, looked up): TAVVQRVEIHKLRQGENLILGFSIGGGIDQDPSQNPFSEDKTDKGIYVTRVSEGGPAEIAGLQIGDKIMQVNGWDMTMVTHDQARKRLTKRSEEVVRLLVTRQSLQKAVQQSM

A further test has as its target T7, GRIP1_2, Q9Y3R0.
T7 sequence (Q9Y3R0 145-248, limits assumed, looked up): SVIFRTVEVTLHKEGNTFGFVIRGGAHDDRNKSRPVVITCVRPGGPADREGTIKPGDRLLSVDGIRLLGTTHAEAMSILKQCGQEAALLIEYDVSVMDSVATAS

In a further test the target is T8, MPP6, Q9NZW5.
T8 sequence (Q9NZW5 125-219, limits assumed, looked up): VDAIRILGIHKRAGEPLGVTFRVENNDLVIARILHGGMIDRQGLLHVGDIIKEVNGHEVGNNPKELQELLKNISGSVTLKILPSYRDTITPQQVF

A further test deals with T9, CARD11, Q9BXL7.
T9 sequence (Q9BXL7 662-765, limits assumed, looked up): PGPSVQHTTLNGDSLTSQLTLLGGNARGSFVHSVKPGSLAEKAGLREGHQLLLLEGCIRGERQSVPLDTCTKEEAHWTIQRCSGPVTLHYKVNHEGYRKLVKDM

For the next test, the target named is T10, GRIP1_3, Q9Y3R0.
T10 sequence (Q9Y3R0 247-346, limits assumed, looked up): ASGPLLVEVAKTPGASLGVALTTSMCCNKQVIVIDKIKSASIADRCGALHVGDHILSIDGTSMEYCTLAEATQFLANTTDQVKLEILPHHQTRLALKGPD

The next test addresses T11, GRIP1_5, Q9Y3R0.
T11 sequence (Q9Y3R0 568-668, limits assumed, looked up): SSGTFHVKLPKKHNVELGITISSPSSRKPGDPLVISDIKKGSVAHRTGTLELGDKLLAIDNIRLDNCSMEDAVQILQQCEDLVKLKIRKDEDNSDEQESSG

Another test has as its target T12, DFNB31_2, Q9P202.
T12 sequence (Q9P202 274-371, limits assumed, looked up): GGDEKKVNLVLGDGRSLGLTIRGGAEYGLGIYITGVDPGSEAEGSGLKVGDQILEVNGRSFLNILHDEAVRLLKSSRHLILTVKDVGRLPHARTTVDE

Another test concerns the target T13, LNX2_2, Q8N448.
T13 sequence (Q8N448 334-432, limits assumed, looked up): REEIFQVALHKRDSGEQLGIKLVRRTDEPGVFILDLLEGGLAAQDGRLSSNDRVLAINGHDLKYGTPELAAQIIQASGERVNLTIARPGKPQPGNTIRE

The next test has as its target T14, MPDZ_10, O75970.
T14 sequence (O75970 1624-1722, limits assumed, looked up): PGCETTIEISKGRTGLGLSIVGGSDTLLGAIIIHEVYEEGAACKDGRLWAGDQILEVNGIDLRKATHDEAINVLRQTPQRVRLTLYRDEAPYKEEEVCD

Where [1] appears, read: plain residues with an end cap or a label only (N-terminal biotin on a linker: ttds).
Setting [2] is: plain residues with an end cap or a label only (N-terminal biotin on a linker: ado-ado).
The mark [3] stands for this setting: plain residues with an end cap or a label only (N-terminal biotin on a linker: ahx).

Chain of HTRA2, O43464 (O43464 355-458): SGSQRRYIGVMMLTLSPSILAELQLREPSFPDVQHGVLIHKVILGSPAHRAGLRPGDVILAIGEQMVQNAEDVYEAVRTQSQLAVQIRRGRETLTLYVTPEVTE
Chain of AHNAK1, Q09666 (Q09666 4-100): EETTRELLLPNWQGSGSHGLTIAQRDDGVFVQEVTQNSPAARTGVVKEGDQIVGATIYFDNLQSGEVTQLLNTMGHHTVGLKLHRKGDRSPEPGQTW
Chain of TJP1_2, Q07157 (Q07157 181-274): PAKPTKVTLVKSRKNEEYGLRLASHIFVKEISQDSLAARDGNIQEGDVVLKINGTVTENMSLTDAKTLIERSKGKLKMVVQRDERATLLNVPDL
Chain of GRIP2_5, Q9C0E4 (Q9C0E4 544-642): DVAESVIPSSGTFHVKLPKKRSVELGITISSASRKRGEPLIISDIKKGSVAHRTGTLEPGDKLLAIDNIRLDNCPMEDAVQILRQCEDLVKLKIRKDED
Chain of GRIP2_3, Q9C0E4 (Q9C0E4 238-339): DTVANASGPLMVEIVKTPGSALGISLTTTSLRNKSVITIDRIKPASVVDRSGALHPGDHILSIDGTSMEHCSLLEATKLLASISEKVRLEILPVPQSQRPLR
Chain of Inadl_4, Q8NI35 (Q8NI35 547-651): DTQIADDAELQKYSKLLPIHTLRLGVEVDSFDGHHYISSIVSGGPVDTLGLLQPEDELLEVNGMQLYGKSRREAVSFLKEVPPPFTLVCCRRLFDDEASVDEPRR

For the molecule SRRPRTETQV [HPV31-E6, P17386], the negative logarithm of the Kd (pKd) entry is reported as “below the threshold” in the test with APBA1_1, Q02410 (setting [1]); “below the threshold” with PTPN13_1, Q12923 (setting [1]); “below the threshold” with HTRA2, O43464 (setting [1]); “below the threshold” with TJP3_3, O95049 (setting [1]); “below the threshold” with TJP1_2, Q07157 (setting [1]); “below the threshold” with SIPA1L2, Q9P2F8 (setting [1]). Besides, the pKd with SNTA1, Q13424 (setting [1]) is 4.29; with TX1BP3, O14907 (setting [1]), 4.61; in the test with GORASP2, Q9H8Y8 (setting [1]) it was 3.65; with GRIP1_2, Q9Y3R0 (setting [1]), “below the threshold”; with MPP6, Q9NZW5 (setting [1]), “below the threshold”; with CARD11, Q9BXL7 (setting [1]), “below the threshold”. The pKd entry was “below the threshold” in the test with GRIP1_3, Q9Y3R0 (setting [1]); “below the threshold” with GRIP1_5, Q9Y3R0 (setting [1]); “below the threshold” in the test with AHNAK1, Q09666 (setting [1]); “below the threshold” with DFNB31_2, Q9P202 (setting [1]); “below the threshold” with Inadl_4, Q8NI35 (setting [1]); 5.1 with DLG2_3, Q15700 (setting [1]). The pKd entry was “below the threshold” with LNX2_2, Q8N448 (setting [1]); “below the threshold” with MPDZ_10, O75970 (setting [1]); “below the threshold” with GRIP2_3, Q9C0E4 (setting [1]); “below the threshold” with GRIP2_5, Q9C0E4 (setting [1]).
For the molecule LCALPKVTTV [AGMAT, Q9BSE5], the pKd result in the test with APBA1_1, Q02410 (setting [1]) is “below the threshold”; with PTPN13_1, Q12923 (setting [1]), “below the threshold”; in the test with HTRA2, O43464 (setting [1]) it was 3.8; in the test with TJP3_3, O95049 (setting [1]), “below the threshold”; with TJP1_2, Q07157 (setting [1]), “below the threshold”; with SIPA1L2, Q9P2F8 (setting [1]), “below the threshold”. Besides, the pKd in the test with SNTA1, Q13424 (setting [1]) is 4.81; with TX1BP3, O14907 (setting [1]) it was 4.07; with GORASP2, Q9H8Y8 (setting [1]), 5.18; in the test with GRIP1_2, Q9Y3R0 (setting [1]), “below the threshold”; with MPP6, Q9NZW5 (setting [1]), 3.54; in the test with CARD11, Q9BXL7 (setting [1]), “below the threshold”. Moreover, the negative-log Kd (pKd) entry with GRIP1_3, Q9Y3R0 (setting [1]) is “below the threshold”; with GRIP1_5, Q9Y3R0 (setting [1]), “below the threshold”; with AHNAK1, Q09666 (setting [1]), “below the threshold”; in the test with DFNB31_2, Q9P202 (setting [1]), 3.77; with Inadl_4, Q8NI35 (setting [1]), “below the threshold”; with DLG2_3, Q15700 (setting [1]) it was 4.64. Besides, the negative logarithm of the Kd (pKd) in the test with LNX2_2, Q8N448 (setting [1]) was 5.21; in the test with MPDZ_10, O75970 (setting [1]) it was 4.14; with GRIP2_3, Q9C0E4 (setting [1]), “below the threshold”; with GRIP2_5, Q9C0E4 (setting [1]) it was “below the threshold”.
For FVHPILQSAV [PRKCA, P17252], the pKd result in the test with APBA1_1, Q02410 (setting [2]) is on record as “below the threshold”; with PTPN13_1, Q12923 (setting [2]), “below the threshold”; with HTRA2, O43464 (setting [2]), “below the threshold”; in the test with TJP3_3, O95049 (setting [2]), “below the threshold”; in the test with TJP1_2, Q07157 (setting [2]) it was “below the threshold”; with SIPA1L2, Q9P2F8 (setting [2]) it was “below the threshold”. For the same molecule, the negative logarithm of the Kd (pKd) with SNTA1, Q13424 (setting [2]) is 3.91; in the test with TX1BP3, O14907 (setting [2]), 5.09; with GORASP2, Q9H8Y8 (setting [2]), “below the threshold”; in the test with GRIP1_2, Q9Y3R0 (setting [2]), “below the threshold”; in the test with MPP6, Q9NZW5 (setting [2]), “below the threshold”; in the test with CARD11, Q9BXL7 (setting [2]), “below the threshold”. Also, the pKd entry in the test with GRIP1_3, Q9Y3R0 (setting [2]) was “below the threshold”; with GRIP1_5, Q9Y3R0 (setting [2]) it was “below the threshold”; with AHNAK1, Q09666 (setting [2]) it was “below the threshold”; with DFNB31_2, Q9P202 (setting [2]) it was “below the threshold”; with Inadl_4, Q8NI35 (setting [2]) it was “below the threshold”; with DLG2_3, Q15700 (setting [2]) it was 3.74. The pKd entry is reported as “below the threshold” in the test with LNX2_2, Q8N448 (setting [2]); “below the threshold” in the test with MPDZ_10, O75970 (setting [2]); “below the threshold” with GRIP2_3, Q9C0E4 (setting [2]); “below the threshold” with GRIP2_5, Q9C0E4 (setting [2]).
Regarding TIVSWPGTFL [LNX1, Q8TBB1], the pKd entry with APBA1_1, Q02410 (setting [3]) was “below the threshold”; with PTPN13_1, Q12923 (setting [3]), “below the threshold”; in the test with HTRA2, O43464 (setting [3]), 3.94; with TJP3_3, O95049 (setting [3]), “below the threshold”; with TJP1_2, Q07157 (setting [3]), “below the threshold”; with SIPA1L2, Q9P2F8 (setting [3]), “below the threshold”. For the same molecule, the pKd result with SNTA1, Q13424 (setting [3]) was “below the threshold”; with TX1BP3, O14907 (setting [3]), 4.39; with GORASP2, Q9H8Y8 (setting [3]), “below the threshold”; in the test with GRIP1_2, Q9Y3R0 (setting [3]) it was “below the threshold”; with MPP6, Q9NZW5 (setting [3]), “below the threshold”; with CARD11, Q9BXL7 (setting [3]) it was “below the threshold”. The pKd entry in the test with GRIP1_3, Q9Y3R0 (setting [3]) is on record as “below the threshold”; in the test with GRIP1_5, Q9Y3R0 (setting [3]), “below the threshold”; with AHNAK1, Q09666 (setting [3]), “below the threshold”; with DFNB31_2, Q9P202 (setting [3]), “below the threshold”; with Inadl_4, Q8NI35 (setting [3]) it was “below the threshold”; in the test with DLG2_3, Q15700 (setting [3]) it was “below the threshold”. The pKd entry with LNX2_2, Q8N448 (setting [3]) is “below the threshold”; with MPDZ_10, O75970 (setting [3]), 3.6; with GRIP2_3, Q9C0E4 (setting [3]) it was “below the threshold”; with GRIP2_5, Q9C0E4 (setting [3]) it was “below the threshold”.
With QFQYAKESYI [TAGAP, Q8N103], the pKd entry was “below the threshold” in the test with APBA1_1, Q02410 (setting [1]); “below the threshold” in the test with PTPN13_1, Q12923 (setting [1]); “below the threshold” with HTRA2, O43464 (setting [1]); “below the threshold” with TJP3_3, O95049 (setting [1]); “below the threshold” with TJP1_2, Q07157 (setting [1]); “below the threshold” with SIPA1L2, Q9P2F8 (setting [1]). The negative-log Kd (pKd) in the test with SNTA1, Q13424 (setting [1]) was 4.97; in the test with TX1BP3, O14907 (setting [1]), 4.13; with GORASP2, Q9H8Y8 (setting [1]), 3.9; with GRIP1_2, Q9Y3R0 (setting [1]) it was “below the threshold”; with MPP6, Q9NZW5 (setting [1]), “below the threshold”; in the test with CARD11, Q9BXL7 (setting [1]) it was “below the threshold”. The pKd result was “below the threshold” in the test with GRIP1_3, Q9Y3R0 (setting [1]); “below the threshold” in the test with GRIP1_5, Q9Y3R0 (setting [1]); “below the threshold” with AHNAK1, Q09666 (setting [1]); 4.74 with DFNB31_2, Q9P202 (setting [1]); “below the threshold” in the test with Inadl_4, Q8NI35 (setting [1]); 3.95 in the test with DLG2_3, Q15700 (setting [1]). Also, the pKd result with LNX2_2, Q8N448 (setting [1]) is reported as “below the threshold”; with MPDZ_10, O75970 (setting [1]) it was “below the threshold”; in the test with GRIP2_3, Q9C0E4 (setting [1]), “below the threshold”; with GRIP2_5, Q9C0E4 (setting [1]), “below the threshold”.
